Measurements reported in the supplement of paper PMC11246515.
± gives the standard deviation of the averaged measurements.

Assay: total protein half-life in vivo (active degradation + dilution); higher = more stable protein
[1] = E. coli NCM3722 delta-clpP delta-lon delta-hslV, growth: N-lim chemostat, doubling time 6 h
[2] = E. coli NCM3722 delta-clpP, growth: N-lim chemostat, doubling time 6 h
[3] = E. coli NCM3722 delta-hslV, growth: N-lim chemostat, doubling time 6 h
[4] = E. coli NCM3722 delta-lon, growth: N-lim chemostat, doubling time 6 h
[5] = E. coli NCM3722 delta-smpB, growth: N-lim chemostat, doubling time 6 h
[6] = wild type E. coli NCM3722, growth: C-lim chemostat, doubling time 3 h
[7] = wild type E. coli NCM3722, growth: C-lim chemostat, doubling time 6 h
[8] = wild type E. coli NCM3722, growth: C-lim chemostat, doubling time 12 h
[9] = wild type E. coli NCM3722, growth: N-lim chemostat, doubling time 6 h
[10] = wild type E. coli NCM3722, growth: N-lim chemostat, doubling time 12 h
[11] = wild type E. coli NCM3722, growth: P-lim chemostat, doubling time 6 h
[12] = wild type E. coli NCM3722, growth: P-lim chemostat, doubling time 12 h

Sequence	total protein half-life in vivo [1] [h]	total protein half-life in vivo [2] [h]	total protein half-life in vivo [3] [h]	total protein half-life in vivo [4] [h]	total protein half-life in vivo [5] [h]	total protein half-life in vivo [6] [h]	total protein half-life in vivo [7] [h]	total protein half-life in vivo [8] [h]	total protein half-life in vivo [9] [h]	total protein half-life in vivo [10] [h]	total protein half-life in vivo [11] [h]	total protein half-life in vivo [12] [h]
MVDKRESYTKEDLLASGRGELFGAKGPQLPAPNMLMMDRVVKMTETGGNFDKGYVEAELDINPDLWFFGCHFIGDPVMPGCLGLDAMWQLVGFYLGWLGGEGKGRALGVGEVKFTGQVLPTAKKVTYRIHFKRIVNRRLIMGLADGEVLVDGRLIYTASDLKVGLFQDTSAF [P0A6Q3]	4.896 ± 0.032	4.99 ± 0.2	5.5 ± 0.67	5.48 ± 0.64	5.18 ± 0.13	3.03 ± 0.035	5.626 ± 0.038	11.5 ± 1.6	5.0372 ± 0.0034	10.1 ± 0.12	5.56 ± 0.57	12.2 ± 0.94
MVKLAFPRELRLLTPSQFTFVFQQPQRAGTPQITILGRLNSLGHPRIGLTVAKKNVRRAHERNRIKRLTRESFRLRQHELPAMDFVVVAKKGVADLDNRALSEALEKLWRRHCRLARGS [P0A7Y8]		5.44	4.21	6.46 ± 0.22	3.76 ± 0.17	3.11 ± 0.27	4.82 ± 0.15	8.06	3.63 ± 0.43	7.32 ± 2.1	3.7	7.12 ± 0.64
MVKLPPLSLYIHIPWCVQKCPYCDFNSHALKGEVPHDDYVQHLLNDLDNDVAYAQGREVKTIFIGGGTPSLLSGPAMQTLLDGVRARLPLAADAEITMEANPGTVEADRFVDYQRAGVNRISIGVQSFSEEKLKRLGRIHGPQEAKRAAKLASGLGLRSFNLDLMHGLPDQSLEEALGDLRQAIELNPPHLSWYQLTIEPNTLFGSRPPVLPDDDALWDIFEQGHQLLTAAGYQQYETSAYAKPGYQCQHNLNYWRFGDYIGIGCGAHGKVTFPDGRILRTTKTRHPRGFMQGRYLESQRDVEATDKPFEFFMNRFRLLEAAPRVEFIAYTGLCEDVIRPQLDEAIAQGYLTECADYWQITEHGKLFLNSLLELFLAE	4.14 ± 1.6	5.76 ± 2.5	4.32 ± 0.36	4.24 ± 0.52	3.734 ± 0.022	3.01 ± 0.05	4.82 ± 0.96	8.1 ± 1.6	4.03 ± 0.08	6.81 ± 0.47	5.41 ± 0.25	10.4 ± 0.86
MVKSQPILRYILRGIPAIAVAVLLSACSANNTAKNMHPETRAVGSETSSLQASQDEFENLVRNVDVKSRIMDQYADWKGVRYRLGGSTKKGIDCSGFVQRTFREQFGLELPRSTYEQQEMGKSVSRSNLRTGDLVLFRAGSTGRHVGIYIGNNQFVHASTSSGVIISSMNEPYWKKRYNEARRVLSRS [P0AFV4]	2.68 ± 0.98	2.09 ± 0.79	2.61 ± 1.4	2.34 ± 0.085	2.33 ± 0.45	1.02 ± 0.41	3.38 ± 0.45	7.8 ± 1.4	2.19 ± 1.5	4.29 ± 1.6	3.39 ± 0.15	4.64 ± 0.49
MVKTQRVVITPGEPAGIGPDLVVQLAQREWPVELVVCADATLLTNRAAMLGLPLTLRPYSPNSPAQPQTAGTLTLLPVALRAPVTAGQLAVENGHYVVETLARACDGCLNGEFAALITGPVHKGVINDAGIPFTGHTEFFEERSQAKKVVMMLATEELRVALATTHLPLRDIADAITPALLHEVIAILHHDLRTKFGIAEPRILVCGLNPHAGEGGHMGTEEIDTIIPVLNELRAQGMKLNGPLPADTLFQPKYLDNADAVLAMYHDQGLPVLKYQGFGRGVNITLGLPFIRTSVDHGTALELAGRGKADVGSFITALNLAIKMIVNTQ	4.27	3.54	3.58	4.45 ± 0.1	4.72 ± 0.25	2.98 ± 0.15	5.541 ± 0.046	9.78 ± 0.65	4.33	7.247 ± 0.038	4.67 ± 0.49	9.91 ± 0.5
MVKVYAPASSANMSVGFDVLGAAVTPVDGALLGDVVTVEAAETFSLNNLGRFADKLPSEPRENIVYQCWERFCQELGKQIPVAMTLEKNMPIGSGLGSSACSVVAALMAMNEHCGKPLNDTRLLALMGELEGRISGSIHYDNVAPCFLGGMQLMIEENDIISQQVPGFDEWLWVLAYPGIKVSTAEARAILPAQYRRQDCIAHGRHLAGFIHACYSRQPELAAKLMKDVIAEPYRERLLPGFRQARQAVAEIGAVASGISGSGPTLFALCDKPETAQRVADWLGKNYLQNQEGFVHICRLDTAGARVLEN	5.55 ± 0.88	3.7 ± 0.34	4.29 ± 0.69	5.16 ± 0.65	4.35 ± 0.11	2.73 ± 0.61	5.63 ± 0.58	8.58 ± 0.091	4.31 ± 0.33	6.8 ± 0.37	6.04 ± 0.13	12.6 ± 0.79
MVLMIVSGRSGSGKSVALRALEDMGFYCVDNLPVVLLPDLARTLADREISAAVSIDVRNMPESPEIFEQAMSNLPDAFSPQLLFLDADRNTLIRRYSDTRRLHPLSSKNLSLESAIDKESDLLEPLRSRADLIVDTSEMSVHELAEMLRTRLLGKRERELTMVFESFGFKHGIPIDADYVFDVRFLPNPHWDPKLRPMTGLDKPVAAFLDRHTEVHNFIYQTRSYLELWLPMLETNNRSYLTVAIGCTGGKHRSVYIAEQLADYFRSRGKNVQSRHRTLEKRKP [P0A894]	5.6 ± 1.1	4.58 ± 0.2	4.92 ± 0.47	5.04 ± 0.64	4.453 ± 0.016	3.02 ± 0.095	6.62 ± 1.3	11.5 ± 0.81	4.48 ± 0.31	7.88 ± 1.8	5.95 ± 0.11	12.1 ± 0.55
